From US20260049115A1 (UNIVERSITY OF CHICAGO, published 2026)

T1: recombinant mouse IL-2Rα (mouse, UniProt P01590 22-236, limits assumed)
T1 construct: Bought recombinant protein; also called rm IL-2Rα
T1 sequence (looked up): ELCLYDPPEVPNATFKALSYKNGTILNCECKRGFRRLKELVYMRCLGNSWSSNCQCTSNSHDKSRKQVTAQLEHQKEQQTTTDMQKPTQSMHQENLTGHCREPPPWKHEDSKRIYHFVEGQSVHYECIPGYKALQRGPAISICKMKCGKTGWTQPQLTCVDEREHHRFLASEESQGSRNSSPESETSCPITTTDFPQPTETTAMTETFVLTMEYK


Legend:
collagen type III [1] = target: T2, collagen type III; assay: ELISA on plates coated with collagen III; apparent KD by nonlinear regression, one-site specific binding [panel C]
T2 construct: Bought protein; also called collagen III; type III collagen
Protocol: (§1) Detection of CBD-IL-2 binding to collagen proteins. The measurement is performed as described previously (Ishihara et al., Sci Transl Med 9:doi:10.1126/scitranslmed.aan0401, 2017). 96-well ELISA plates (Greiner Bio One) were coated with 10 μg/mL collagen I (EMD Millipore), collagen III (EMD Millipore), or 1 μg/mL recombinant mouse IL-2Rα (SinoBiological) in PBS for 1 h at 37° C., followed by blocking with 2% BSA in PBS with 0.05% Tween 20 (PBS-T) for 1 hr at RT. Then, wells were washed with PBS-T and further incubated with 10 μg/mL CBD- or unmodified-IL-2 for 1 hr at RT. After 3 washes with PBS-T, wells were incubated for 1 hr at RT with HRP-conjugated antibody against rat IgG (Jackson ImmunoResearch). After washes, bound CBD-IL2 and IL-2 were detected with tetramethylbenzidine substrate by measurement of the absorbance at 450 nm with subtraction of 570 nm. The apparent dissociation constant (KD) values were obtained by nonlinear regression analysis in Prism software (v7, GraphPad Software) assuming one-site specific binding.

recombinant mouse IL-2Rα = target: T1, recombinant mouse IL-2Rα; assay: ELISA on plates coated with recombinant mouse IL-2Rα; apparent KD by nonlinear regression, one-site specific binding [panel C]
Protocol: as §1

collagen type I [2] = target: T3, collagen type I; assay: ELISA on plates coated with collagen I; apparent KD by nonlinear regression, one-site specific binding [panel C]
T3 construct: Bought protein; also called collagen I; type I collagen
Protocol: as §1

[3] = target: CCR5 on ThP1 human monocytes (human, UniProt P51681 1-352); assay: cell-based or functional assay
collagen type I [4] = target: T3, collagen type I; assay: SPR, collagen I immobilised on the chip, CBD-CCL4 flowed at 15.6 to 500 nM, 1:1 Langmuir fit [panel B]
Protocol: (§2) FIGS. 6A-6D. CBD-CCL4 fusion protein binds to collagen I and collagen III and maintains its activity. (A) WT CCL4 and CBD-CCL4 were analyzed by SDS-PAGE followed by Coomassie blue staining. (B,C) Affinity of CBD-CCL4 against (B) collagen I and (C) collagen III was measured by SPR. SPR chips were functionalized with collagen I (˜500 RU) and collagen III (˜700 RU), and the CBD-CCL4 was flowed over the chips at indicated concentrations. Curves represent the obtained specific responses (in resonance units (RU)) to CBD-CCL4. Experimental curves were fitted with 1:1 Langmuir fit model. Binding kinetics values [dissociation constants (KD) and rate constants (kₒₙ and koff)] determined from the fitted curves are shown. (D) GPCR activation assay comparing signaling of WT CCL4 and CBD-CCL4 in ThP1 monocytes. EC₅₀ values were calculated using a non-linear dose-response curve fit model. Each point represents mean±SEM, n=3.
(§3) CBD-CCL4 collagen binding measurements using SPR. SPR measurements were made with a Biacore X100 SPR system™ (GE Healthcare). Collagen I or collagen III was immobilized via amine coupling on a CM5 chip (GE Healthcare) for ˜1000 resonance units (RU) according to the manufacturer's instructions. […] Specific binding of CBD-CCL4 to collagen was calculated automatically using the response to a non-functionalized channel as a reference. […]

collagen type III [5] = target: T2, collagen type III; assay: SPR (Biacore X100), collagen III on CM5 chip, 1:1 Langmuir fit
Protocol: as §2, §3

collagen type III [6] = target: T2, collagen type III; assay: SPR, collagen III immobilised on the chip, CBD-CCL4 flowed at 15.6 to 500 nM, 1:1 Langmuir fit [panel C]
Protocol: as §2, §3

collagen type I [7] = target: T3, collagen type I; assay: SPR (Biacore X100), collagen I on CM5 chip, 1:1 Langmuir fit
Protocol: as §2, §3

T2 sequence (P02461 154-1221): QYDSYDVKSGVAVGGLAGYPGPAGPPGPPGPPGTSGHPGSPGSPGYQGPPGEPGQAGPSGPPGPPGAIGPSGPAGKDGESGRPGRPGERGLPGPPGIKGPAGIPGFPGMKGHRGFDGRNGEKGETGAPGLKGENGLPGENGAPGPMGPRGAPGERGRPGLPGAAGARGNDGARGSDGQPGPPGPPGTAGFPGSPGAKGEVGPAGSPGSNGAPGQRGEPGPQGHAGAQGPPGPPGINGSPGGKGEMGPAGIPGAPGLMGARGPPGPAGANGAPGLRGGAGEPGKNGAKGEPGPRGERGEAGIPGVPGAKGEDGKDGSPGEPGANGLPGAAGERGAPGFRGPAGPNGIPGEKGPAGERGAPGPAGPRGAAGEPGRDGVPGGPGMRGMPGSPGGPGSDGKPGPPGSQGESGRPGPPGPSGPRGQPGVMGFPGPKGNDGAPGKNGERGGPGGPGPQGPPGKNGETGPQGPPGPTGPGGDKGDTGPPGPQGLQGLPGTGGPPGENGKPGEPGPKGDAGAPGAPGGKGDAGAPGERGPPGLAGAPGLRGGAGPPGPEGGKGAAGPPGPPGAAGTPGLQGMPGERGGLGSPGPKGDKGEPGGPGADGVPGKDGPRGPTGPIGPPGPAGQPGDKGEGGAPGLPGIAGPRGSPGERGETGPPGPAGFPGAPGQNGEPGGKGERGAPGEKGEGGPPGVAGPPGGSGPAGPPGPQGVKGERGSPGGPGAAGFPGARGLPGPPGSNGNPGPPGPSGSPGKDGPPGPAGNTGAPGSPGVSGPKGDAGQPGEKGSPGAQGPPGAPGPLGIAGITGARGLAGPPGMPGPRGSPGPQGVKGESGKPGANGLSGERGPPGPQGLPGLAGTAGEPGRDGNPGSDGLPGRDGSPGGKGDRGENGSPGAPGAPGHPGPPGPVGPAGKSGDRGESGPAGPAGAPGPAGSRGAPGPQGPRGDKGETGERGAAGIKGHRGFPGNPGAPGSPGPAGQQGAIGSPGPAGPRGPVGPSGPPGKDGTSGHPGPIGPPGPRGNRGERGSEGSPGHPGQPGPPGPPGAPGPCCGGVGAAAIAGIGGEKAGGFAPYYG
CCR5 on ThP1 human monocytes, sequence (P51681 whole entry): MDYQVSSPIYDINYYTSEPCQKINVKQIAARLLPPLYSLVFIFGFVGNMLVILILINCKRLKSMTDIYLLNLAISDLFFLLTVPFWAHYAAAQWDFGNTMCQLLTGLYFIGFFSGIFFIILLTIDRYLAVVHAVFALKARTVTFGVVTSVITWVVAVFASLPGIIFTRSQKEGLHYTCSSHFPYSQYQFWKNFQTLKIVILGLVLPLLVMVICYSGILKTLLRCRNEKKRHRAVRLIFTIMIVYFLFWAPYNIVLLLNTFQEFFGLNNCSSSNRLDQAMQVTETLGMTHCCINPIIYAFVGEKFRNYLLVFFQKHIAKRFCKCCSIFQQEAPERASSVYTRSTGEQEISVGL

Kd (collagen type III [1]) | Kd (recombinant mouse IL-2Rα) | Kd (collagen type I [2]) | EC50, calcium flux (RFU) in ThP1 monocytes [panel D] [3] | koff (collagen type I [4]) | kon (collagen type I [4]) | Kd (collagen type III [5]) | koff (collagen type III [6]) | kon (collagen type III [6]) | Kd (collagen type I [7]) | Binder
181 nM | 54.7 nM | 268 nM | – | – | – | – | – | – | – | CBD-fused IL-2 recombinant protein (the vWF A3 domain and mouse IL-2 fusion protein) (other, also called CBD-IL-2) CSQPLDVILLLDGSSSFPASYFDEMKSFAKAFISKANIGPRLTQVSVLQYGSITTIDVPWNVVPEKAHLLSLVDVMQREGGPSQIGDALGFAVRYLTSEMHGARPGASKAVVILVTDVSVDSVDAAADAARSNRVTVFPIGIGDRYDAAQLRILAGPAGDSNVVKLQRIEDLPTMVTLGNSFLHKLCSGFVRIGGGSGGGSPTSSSTSSSTAEAQQQQQQQQQQQQHLEQLLMDLQELLSRMENYRNLKLPRMLTFKFYLPKQATELKDLQCLEDELGPLRHVLDLTQSKSFQLEDAENFISNIRVTVVKLKGSDNTFECQFDDESATVVDFLRRWIAFCQSIISTSPQ
– | 60 nM | – | – | – | – | – | – | – | – | wild-type mouse IL-2 (His-tagged) (ligand, The entry includes the C-terminal 6xHis tag as printed; also called wild-type IL-2; unmodified-IL-2) PTSSSTSSSTAEAQQQQQQQQQQQQHLEQLLMDLQELLSRMENYRNLKLPRMLTFKFYLPKQATELKDLQCLEDELGPLRHVLDLTQSKSFQLEDAENFISNIRVTVVKLKGSDNTFECQFDDESATVVDFLRRWIAFCQSIISTSPQ
– | – | – | 7 nM | 0.0031 s⁻¹ | 95000 M⁻¹ s⁻¹ | 14.5 nM | 0.0078 s⁻¹ | 540000 M⁻¹ s⁻¹ | 33.4 nM | CBD-CCL4 (human vWF A3 domain and murine CCL4 fusion protein) (other, also called CBD-CCL4 fusion protein; vWF A3 domain-CCL4 fusion protein) CSQPLDVILLLDGSSSFPASYFDEMKSFAKAFISKANIGPRLTQVSVLQYGSITTIDVPWNVVPEKAHLLSLVDVMQREGGPSQIGDALGFAVRYLTSEMHGARPGASKAVVILVTDVSVDSVDAAADAARSNRVTVFPIGIGDRYDAAQLRILAGPAGDSNVVKLQRIEDLPTMVTLGNSFLHKLCSGFVRIGGGGSGGGGSAPMGSDPPTSCCFSYTSRQLHRSFVMDYYETSSLCSKPAVVFLTKRGRQICANPSEPWVTEYMSDLELNHHHHHH
